Measured values as given in patent US20210017277A1 (US Dept. of Health and Human Services, published 2021).

Target: T1, Biotinylated Human Siglec-3/CD33 Protein, Avi Tag (Acro Biosystems) (human, UniProt P20138 18-259, biotinylated (Avi Tag))
T1 construct: Bought reagent; also called biotinalated Siglec-3; not shown: Avi Tag
Experiment: flow cytometry: CAR-transduced T cells stained with biotinylated human Siglec-3/CD33 protein, then Streptavidin-PE
Description: Surface expression of CD33 CAR-transduced T cells was determined by flow cytometry using either protein-L (Themo Fisher) or a Biotinylated Human Siglec-3/CD33 Protein (Acro Biosystems, Newark, Del., USA) followed by incubation with Streptavidin-PE (BioLegend, San Diego, Calif., USA). CD123 CAR expression were detected with protein-L. Expression of CD33, CD123 and other cell surface markers were detected using the following antibodies from eBioscience (Thermo Fisher): CD33, CD45, CD3, CD8a, CD4, CD10.
For CD33 CAR detection with Biotinylated Human Siglec-3/CD33 Protein: CAR detection with: add 2 ul of Biotinylated Human Siglec-3/CD33 Protein, [Avi Tag (Avitag™) Acro Biosystems, Newark, Del., USA], incubate for 20 min, wash once and incubate with 0.5 μl of Streptavidin-PE, incubate for additional 10 min, wash once, subject for FACS analysis.

T1 sequence (P20138 18-259 limits assumed): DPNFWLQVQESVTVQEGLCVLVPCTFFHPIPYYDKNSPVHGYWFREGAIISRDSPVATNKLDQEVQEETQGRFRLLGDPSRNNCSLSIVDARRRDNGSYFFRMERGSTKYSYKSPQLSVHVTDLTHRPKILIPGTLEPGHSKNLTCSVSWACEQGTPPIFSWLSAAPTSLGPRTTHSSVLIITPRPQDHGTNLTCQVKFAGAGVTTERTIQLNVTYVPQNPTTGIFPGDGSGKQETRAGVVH

B1: CD33Hu195-CD28Z CAR (other)
chain: QVQLVQSGAEVKKPGSSVKVSCKASGYTFTDYNMHWVRQAPGQGLEWIGYIYPYNGGTGYNQKFKSKATITADESTNTAYMELSSLRSEDTAVYYCARGRPAMDYWGQGTLVTVSSGGGGSGGGGSGGGGSDIQMTQSPSSLSASVGDRVTITCRASESVDNYGISFMNWFQQKPGKAPKLLIYAASNQGSGVPSRFSGSGSGTDFTLTISSLQPDDFATYYCQQSKEVPWTFGQGTKVEIKSGAAAIEVMYPPPYLDNEKSNGTIIHVKGKHLCPSPLFPGPSKPFWVLVVVGGVLACYSLLVTVAFIIFWVRSKRSRLLHSDYMNMTPRRPGPTRKHYQPYAPPRDFAAYRSRVKFSRSADAPAYQQGQNQLYNELNLGRREEYDVLDKRRGRDPEMGGKPRRKNPQEGLYNELQKDKMAEAYSEIGMKGERRRGKGHDGLYQGLSTATKDTYDALHMQALPPR
notes: CAR on the surface of transduced human T cells; also called CD33.2-28z; CD33.2-CD28z
B1: binds.
